According to patent publication US20210155703A1 (Bristol-Myers Squibb, published 2021):
One block for each binder: values may come before it.

Experiments:
[1] = target: T1, human CD27 on human T cells (human, UniProt P26842 21-260); experiment: cell-based or functional assay
T1 sequence: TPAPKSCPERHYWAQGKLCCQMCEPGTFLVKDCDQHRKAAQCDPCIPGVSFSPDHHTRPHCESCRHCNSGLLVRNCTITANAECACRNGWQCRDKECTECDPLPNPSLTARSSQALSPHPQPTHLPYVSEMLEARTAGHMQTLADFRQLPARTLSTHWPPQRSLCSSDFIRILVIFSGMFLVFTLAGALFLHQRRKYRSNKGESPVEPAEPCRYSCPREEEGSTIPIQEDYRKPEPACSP

[2] = target: T1, human CD27 on human T cells; experiment: flow cytometry on human T cells, FIG. 1A
[3] = target: T2, cynomolgus CD27 on cynomolgus T cells (cynomolgus monkey); experiment: flow cytometry on cynomolgus T cells, FIG. 1B
T2 construct: whole, on cells; also called cCD27

[4] = target: T1, human CD27 on human T cells; experiment: blocking assay by flow cytometry: human T cells with antibody in the presence of 10 µg/ml soluble human CD70; blocked ligand CD70 detected with labelled anti-CD70
Excerpt: Binding of the Abs in the assay was detected by a labeled anti-human IgG Ab (*, ahIgG). […] Binding of the ligand blocking 1F5 Ab was not detected. […] CD70 was detected by a labeled anti-CD70 Ab (*, aCD70). […] Binding of CD70 decreased with increasing concentrations of the ligand blocking 1F5 Ab. “MFI,” “hIgG1,” and “FL2” are as described for FIG. 1. “FL1” in (B) indicates measurement in fluorescence channel 1 (FL1).
The presence or absence of binding of the Abs was detected using a labeled anti-human IgG Ab. […] See FIG. 2A, showing a schematic of the assay, and FIG. 2B, showing a graph of the results. Binding of the ligand blocking 1F5 Ab was not detected. Id. […] CD70 was detected by a labeled anti-CD70 Ab.

[5] = target: T2, cynomolgus CD27 on cynomolgus T cells; experiment: binding to cynomolgus T cells
[6] = target: T1, human CD27 on human T cells; experiment: flow cytometry on human T cells, n=5; mean of n=5
[7] = target: T1, human CD27 on human T cells; experiment: flow cytometry on human T cells, n=5; lowest of the n=5 determinations
[8] = target: T1, human CD27 on human T cells; experiment: flow cytometry on human T cells, n=5; highest of the n=5 determinations
[9] = target: T2, cynomolgus CD27 on cynomolgus T cells; experiment: estimated in vivo serum EC50 for 50% CD27 receptor occupancy in monkey whole blood, Emax model
Excerpt: Criteria for evaluation included clinical observations, hematology, PK, CD27 receptor occupancy (RO), circulating sCD27 levels, lymphocyte subset analysis, cytokine levels, and ADA determination. Blood samples were obtained prior to dosing and at various intervals up to 42 days post-dose. Overall, there were no adverse findings, including no adverse clinical observations and no changes in hematologic parameters. There were time- and dose-dependent increases in circulating sCD27 levels. […] There were no significant changes in circulating lymphocyte subsets including CD4⁺, Treg (Foxp3⁺/CD4⁺), CD8⁺ T, CD20⁺ B, and NK cells, or circulating cytokine levels.

[10] = target: T3, human CD27 (hCD27), form in the assay not stated (human, UniProt P26842 20-260, limits assumed); experiment: Scatchard analysis; format not stated; Scatchard analysis, not SPR; antibody, format not stated
T3 construct: Whole entry named
T3 sequence: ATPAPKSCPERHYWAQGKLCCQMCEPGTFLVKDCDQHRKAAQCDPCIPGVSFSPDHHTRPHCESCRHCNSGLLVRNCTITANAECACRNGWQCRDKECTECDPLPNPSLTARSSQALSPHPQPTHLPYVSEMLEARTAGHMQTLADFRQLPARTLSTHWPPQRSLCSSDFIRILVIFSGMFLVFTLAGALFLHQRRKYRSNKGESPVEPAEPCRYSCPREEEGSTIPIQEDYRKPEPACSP

[11] = target: T1, human CD27 on human T cells; experiment: flow cytometry on human T cells pretreated with 10 µg/ml human CD70; bound antibody detected with labelled anti-human IgG
[12] = target: T4, hCD27-mouseFc or hCD27-Histag proteins (human, UniProt P26842 20-191); experiment: SPR; due to an increased dissociation rate, association rate unchanged
T4 construct: not shown: mouse Fc or His tag
T4 sequence: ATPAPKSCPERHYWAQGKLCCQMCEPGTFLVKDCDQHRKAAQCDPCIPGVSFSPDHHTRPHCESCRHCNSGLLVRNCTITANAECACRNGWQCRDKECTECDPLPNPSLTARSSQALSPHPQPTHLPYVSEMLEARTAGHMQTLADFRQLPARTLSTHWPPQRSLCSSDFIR
Experimental: (§1) The measured values were 41-44 nM at 37° C. and 13-16 nM at 25° C. […] The kinetic analysis used a 1:1 fit binding model.

[13] = target: T4, hCD27-mouseFc or hCD27-Histag proteins; experiment: SPR at 25 C, Fab with hCD27-mouseFc or hCD27-Histag, 1:1 fit binding model; 25 C; lower end of the measured values
Experimental: as §1

[14] = target: T4, hCD27-mouseFc or hCD27-Histag proteins; experiment: SPR at 37 C, Fab with hCD27-mouseFc or hCD27-Histag, 1:1 fit binding model; 37 C; lower end of the measured values
Experimental: as §1

- IFN-γ production of CD4+CD45RO+ memory T cells, CHO-svCD3-CD32a co-culture (EC50) [1]: 0.089 nM
- IFN-γ secretion in FIG. 6(B), CHO-svCD3-CD32a co-culture (EC50) [1]: 0.0402 nM
- T cell proliferation in FIG. 6(A), CHO-svCD3-CD32a co-culture (EC50) [1]: 0.0357 nM
- proliferation of CD4+CD45RO+ memory T cells, CHO-svCD3-CD32a co-culture (EC50) [1]: 0.073 nM
- EC50 [2]: 1.09 nM
- EC50 [3]: 1.8 nM
- IC50 (read off the curve) [4]: ~1 nM
B1: Reference HuMAb 1F5 (human anti-hCD27 mAb, ligand blocking) (antibody, human IgG1, kappa, V domains shown)
VH: QVQLVESGGGVVQPGRSLRLSCAASGFTFSSYDMHWVRQAPGKGLEWVAVIWYDGSNKYYADSVKGRFTISRDNSKNTLYLQMNSLRAEDTAVYYCARGSGNWGFFDYWGQGTLVTVSS
VL: DIQMTQSPSSLSASVGDRVTITCRASQGISRWLAWYQQKPEKAPKSLIYAASSLQSGVPSRFSGSGSGTDFTLTISSLQPEDFATYYCQQYNTYPRTFGQGTKVEIKR
notes: also called 1F5-IgG1

- IFN-γ production of CD4+CD45RO+ memory T cells, CHO-svCD3-CD32a co-culture (EC50) [1]: 0.015 nM
- IFN-γ secretion in FIG. 6(B), CHO-svCD3-CD32a co-culture (EC50) [1]: 0.00624 nM
- IFN-γ secretion, CHO-svCD3-CD32a co-culture (mean EC50) [1]: 0.0078 nM
- IL-2 release from SEB-stimulated PBMCs, with PD-1 blockade against without [1]: 2 fold
- T cell proliferation in FIG. 6(A), CHO-svCD3-CD32a co-culture (EC50) [1]: 0.0045 nM
- T cell proliferation, CHO-svCD3-CD32a co-culture (mean EC50) [1]: 0.009 nM
- induction of IFN-γ secretion from CD4+CD25- T cells co-cultured with B cells, 100 ng/ml SEB, antibody at 10 µg/ml [1]: > 2.5 fold
- proliferation of CD4+CD45RO+ memory T cells, CHO-svCD3-CD32a co-culture (EC50) [1]: 0.005 nM
- EC50 [5]: ~5 ng/mL
- EC50 [2]: 0.0221 nM
- EC50 [3]: 0.092 nM
- EC50 [6]: 0.044 nM
- EC50 [7]: 0.022 to 0.076 nM
- EC50 [8]: 0.022 to 0.076 nM
- EC50 [9]: 0.08 nM
- Kd [10]: 0.045 nM
- EC50 (read off the curve) [11]: ~0.1 nM
B2: HuMAb BMS-986215 (human IgG1 anti-human CD27 monoclonal antibody) (antibody, V domains shown)
VH: QVQLVQSGSEVKKPGASVKVSCKASGYTFTTYAMNWVRQAPGQGLEWMGWINTNTGNPTYAQGFTGRFVFSLDTSVNTAYLQISSLKAEDTAVYYCARDFGGFDYWGQGTLVTVSS
VL: AIQLTQSPSSLSASVGDRVTITCRASQGISSALAWYQQKPGKAPKLLINDASSLESGVPSRFSGSGSGTDFTLTISSLQPEDFATYYCQQFNNYPRTFGQGTKVEIKR
modifications: N-terminal glutamine to pyroglutamate; N-glycan at N297 (Table 4)
notes: Full-length human IgG1 produced in CHO cells; derived from clone 16D9

- fold loss of affinity from 25° C. to 37° C. [12]: 3 fold
- Kd [13]: 13 to 16 nM
- Kd [14]: 41 to 44 nM
B3: Fab fragment of BMS-986215 (Fab, V domains shown)
VH: QVQLVQSGSEVKKPGASVKVSCKASGYTFTTYAMNWVRQAPGQGLEWMGWINTNTGNPTYAQGFTGRFVFSLDTSVNTAYLQISSLKAEDTAVYYCARDFGGFDYWGQGTLVTVSS
VL: AIQLTQSPSSLSASVGDRVTITCRASQGISSALAWYQQKPGKAPKLLINDASSLESGVPSRFSGSGSGTDFTLTISSLQPEDFATYYCQQFNNYPRTFGQGTKVEIK
